Measurements reported in patent publication US20260022169A1 (published 2026).

Target: T1, CLDN18.2 (UniProt P56856 1-261)
T1 chain: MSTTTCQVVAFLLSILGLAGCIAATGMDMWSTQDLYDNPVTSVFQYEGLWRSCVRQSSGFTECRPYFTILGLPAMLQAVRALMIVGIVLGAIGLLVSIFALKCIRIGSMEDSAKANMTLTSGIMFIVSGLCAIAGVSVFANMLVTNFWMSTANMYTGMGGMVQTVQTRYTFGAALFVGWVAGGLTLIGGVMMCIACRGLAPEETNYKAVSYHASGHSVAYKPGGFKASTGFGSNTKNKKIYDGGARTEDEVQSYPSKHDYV
Assay: FACS binding, MC38/CD47/CLDN18.2 cells

EC50: 3.24 nM
B1: hu28 (antibody, V domains shown)
VH: QVQLVQSGAEVKKPGASVKVSCKASGYTFTNWVHWVRQAPGQGLEWMGEINPTNARSNYNEKFKKRVTMTRDTSTSTVYMELSSLRSEDTAVYYCARIYYGNSFAHWGQGTLVTVSS
VL: DIVMTQSPDSLAVSLGERATINCKSSQSLLNAGNQKNYLTWYQQKPGQPPKLLIYWSSTRESGVPDRFSGSGSGTDFTLTISSLQAEDVAVYHCQNNYYYPLTFGGGTKLEIKR
